Consider 39 sequences from the supplement of paper PMC7877785.

± gives the uncertainty stated by the source.

A short description of the data set: self-splicing fitness, log relative to wild type (ln ratio); higher = more splicing; Tetrahymena group I intron in knt gene, E. coli kanamycin selection, DiMSum; sequences stand for … in CUCUCU…GGAGGGAAAAGUUAUCAGGCAUGCACCUGGUAGCUAGUCUUUAAACCAAUAGAUUGCAUCGGUUUAAAAGGCAAGACCGUCAAAUUGCGGGAAAGGGGUCAACAGCCGUUCAGUACCAAGUCUCAGGGGAAACUUUGAGAUGGCCUUGCAAAGGGUAUGGUAAUAAGCUGACGGACAUGGUCCUAACCACGCAGCCAAGUCCUAAGUCAACAGAUCUUCUGUUGAUAUGGAUGCAGUUCACAGACUAAAUGUCGGUCGGGGAAGAUGUAUUCUUCUCAUAAGAUAUAGUCGGACCUCUCCUUAAUGGGAGCUAGCGGAUGAAGUGAUGCAACACUGGAGCCGCUGGGAACUAAUUUGUAUGCGAAAGUAUAUUGAUUAGUUUUGGAGUACUCGUGGUCG
The essentials:
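Library with all eight P1ex-region intron nucleotides randomised, intron inside the knt kanamycin-resistance gene on pET-22b(+), in E. coli BL21(DE3). Cells grew overnight at 37°C or 30°C on LB agar with or without 25 μg/mL kanamycin (plus 100 μg/mL carbenicillin, 50 μM IPTG, 0.2% rhamnose), in six replicate transformations. Pooled colonies were amplicon-sequenced on Illumina HiSeq 2500. DiMSum fitness is the error-weighted combination of wild-type-normalised replicate fold changes, kanamycin versus none.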

Take UCAAAGCAAUAUUACGUCAC: the “self-splicing fitness (ln)” value is, setting by setting: (30 °C) -3.89 ± 0.36; (37 °C) -3.01 ± 0.4.
For the sequence CUCGAGCAAUAUUACGAGUU, under “37 °C”, the “self-splicing fitness (ln)” value was -2.42 ± 0.24.
Regarding GUAUAGCAAUAUUACGGCGA, the “self-splicing fitness (ln)” value by setting is: (30 °C) -1.21 ± 0.097; (37 °C) -0.087 ± 0.1.
On the same counts, the results for UGGAAGCAAUAUUACGUUGG are -2.69 ± 0.19 and -0.902 ± 0.14.
For GAAAAGCAAUAUUACGAUAC, in that order: -1.21 ± 0.25 and -0.873 ± 0.22.
On the same counts, the results for GAGCAGCAAUAUUACGCUUA are -0.991 ± 0.077 and -0.238 ± 0.11.
Turning to ACACAGCAAUAUUACGGAGG, the “self-splicing fitness (ln)” value is -2.69 ± 0.076 (30 °C) and -2.15 ± 0.098 (37 °C).
For AUCGAGCAAUAUUACGAGGG, in that order: -1.4 ± 0.17 and -2.1 ± 0.46.
Take UCACAGCAAUAUUACGUGGC: the “self-splicing fitness (ln)” value (30 °C) is -3.08 ± 0.18 and the “self-splicing fitness (ln)” value (37 °C) was -2.83 ± 0.26.
On the same counts, the results for UGUCAGCAAUAUUACGCGCU are -0.874 ± 0.17 and -0.182 ± 0.17.
For the sequence ACGUAGCAAUAUUACGGUUG, the “self-splicing fitness (ln)” value was -2.6 ± 0.1 (30 °C) and -0.902 ± 0.12 (37 °C).
For GCCGAGCAAUAUUACGUAUC, in that order: -2.66 ± 0.16 and -1.75 ± 0.13.
For ACGAAGCAAUAUUACGCUAG, in that order: -1.5 ± 0.084 and -0.372 ± 0.11.
On the same counts, the results for UAGUAGCAAUAUUACGCCUU are -2.11 ± 0.12 and -0.556 ± 0.11.
In the case of AAUUAGCAAUAUUACGUGUU, the “self-splicing fitness (ln)” value (30 °C) was -1.05 ± 0.11 and the “self-splicing fitness (ln)” value (37 °C) is -1.78 ± 0.13.
On to UCAGAGCAAUAUUACGCCGU, for which the “self-splicing fitness (ln)” value (37 °C) is -3.02 ± 0.43.
Take UCGUAGCAAUAUUACGCACA: the “self-splicing fitness (ln)” value runs as follows: (30 °C) -2.52 ± 0.21; (37 °C) -1.7 ± 0.2.
On the same counts, the results for CCGAAGCAAUAUUACGGUAG are -2.87 ± 0.11 and -1.3 ± 0.095.
For GGAAAGCAAUAUUACGACGU, the “self-splicing fitness (ln)” value is -0.135 ± 0.097 (30 °C) and 0.068 ± 0.1 (37 °C).
GCCUAGCAAUAUUACGCCUA: the “self-splicing fitness (ln)” value (37 °C) was -2.79 ± 0.43.
Turning to AAUAAGCAAUAUUACGGAUU, the “self-splicing fitness (ln)” value (30 °C) was -1.34 ± 0.096 and the “self-splicing fitness (ln)” value (37 °C) is -0.185 ± 0.12.
On the same counts, the results for GCCCAGCAAUAUUACGAAGC are -2.36 ± 0.19 and -0.479 ± 0.2.
For the sequence UAGAAGCAAUAUUACGAUAU, the “self-splicing fitness (ln)” value was -3.44 ± 0.25 (30 °C) and -2.19 ± 0.19 (37 °C).
On the same counts, the results for CAAAAGCAAUAUUACGUCUC are -3.38 ± 0.23 and -2.15 ± 0.2.
For UCCCAGCAAUAUUACGUUUU, in that order: -3.06 ± 0.11 and -1.81 ± 0.15.
On the same counts, the results for CUACAGCAAUAUUACGGCCG are -0.378 ± 0.091 and -0.0396 ± 0.11.
In the case of AGAUAGCAAUAUUACGAGUU, the “self-splicing fitness (ln)” value is, setting by setting: (30 °C) -2.21 ± 0.1; (37 °C) -0.588 ± 0.099.
With UCUUAGCAAUAUUACGAGAC, where the note is “30 °C”, the “self-splicing fitness (ln)” value is -2.23 ± 0.25.
For the sequence GCAUAGCAAUAUUACGCCCC, the “self-splicing fitness (ln)” value runs as follows: (30 °C) -0.129 ± 0.26; (37 °C) 0.692 ± 0.34.
On the same counts, the results for UUACAGCAAUAUUACGGGCC are -3.28 ± 0.19 and -3.55 ± 0.42.
As for UUGCAGCAAUAUUACGCCGA, the “self-splicing fitness (ln)” value was -0.318 ± 0.11 (30 °C) and -0.371 ± 0.12 (37 °C).
For UGACAGCAAUAUUACGGGCA, in that order: -0.0919 ± 0.079 and 0.689 ± 0.093.
Regarding CGAUAGCAAUAUUACGCAUC, the “self-splicing fitness (ln)” value was -3.16 ± 0.31 (30 °C) and -1.94 ± 0.38 (37 °C).
On the same counts, the results for UGGCAGCAAUAUUACGCCAG are -1.46 ± 0.14 and -1.59 ± 0.21.
UUGCAGCAAUAUUACGGUCG: the “self-splicing fitness (ln)” value was -0.4 ± 0.089 (30 °C) and 0.21 ± 0.12 (37 °C).
For ACAAAGCAAUAUUACGGGCA, in that order: -1.56 ± 0.069 and -1.28 ± 0.056.
For UAUAAGCAAUAUUACGCUCU, in that order: -0.357 ± 0.11 and 0.0533 ± 0.16.
Regarding CCGGAGCAAUAUUACGUCAG, the “self-splicing fitness (ln)” value by setting is: (30 °C) -1.42 ± 0.12; (37 °C) -1.17 ± 0.15.
Take GUCUAGCAAUAUUACGAAUU: the “self-splicing fitness (ln)” value was -1.29 ± 0.077 (30 °C) and -0.287 ± 0.098 (37 °C).
